# Measured values published in US20260201067A1, “DPP3 INHIBITOR FOR IMPROVEMENT OF PULMONARY FUNCTION IN CRITICALLY ILL PATIENTS” (4TEEN4 Pharmaceuticals GmbH, priority 2022, published 2026).
# Entries after “also recorded” stand apart in the source; their conditions may differ.
# T1: DPP3 (Homo sapiens, UniProt Q9NY33)
# T1 sequence (Q9NY33 1-737): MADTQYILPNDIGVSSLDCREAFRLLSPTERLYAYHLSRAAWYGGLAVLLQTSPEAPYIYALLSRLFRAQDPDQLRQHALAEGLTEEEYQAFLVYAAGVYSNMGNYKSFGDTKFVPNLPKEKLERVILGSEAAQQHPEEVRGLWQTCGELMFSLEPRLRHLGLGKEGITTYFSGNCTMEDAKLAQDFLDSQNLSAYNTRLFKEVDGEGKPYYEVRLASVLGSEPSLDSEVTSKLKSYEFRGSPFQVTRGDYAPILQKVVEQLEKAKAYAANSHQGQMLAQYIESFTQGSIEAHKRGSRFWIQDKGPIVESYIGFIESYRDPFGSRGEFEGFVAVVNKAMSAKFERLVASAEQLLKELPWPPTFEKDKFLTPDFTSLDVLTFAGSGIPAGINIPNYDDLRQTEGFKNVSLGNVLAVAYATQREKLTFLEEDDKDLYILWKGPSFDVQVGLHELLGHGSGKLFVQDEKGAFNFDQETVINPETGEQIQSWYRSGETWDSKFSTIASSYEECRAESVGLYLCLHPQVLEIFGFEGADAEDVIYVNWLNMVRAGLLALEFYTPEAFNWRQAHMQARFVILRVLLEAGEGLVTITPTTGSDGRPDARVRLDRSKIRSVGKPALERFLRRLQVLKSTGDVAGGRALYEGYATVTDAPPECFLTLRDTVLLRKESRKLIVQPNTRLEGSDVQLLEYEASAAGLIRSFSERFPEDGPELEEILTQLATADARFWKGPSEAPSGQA
# T2: native human DPP3 from blood cells (human, UniProt Q9NY33 2-737)
# T2 sequence: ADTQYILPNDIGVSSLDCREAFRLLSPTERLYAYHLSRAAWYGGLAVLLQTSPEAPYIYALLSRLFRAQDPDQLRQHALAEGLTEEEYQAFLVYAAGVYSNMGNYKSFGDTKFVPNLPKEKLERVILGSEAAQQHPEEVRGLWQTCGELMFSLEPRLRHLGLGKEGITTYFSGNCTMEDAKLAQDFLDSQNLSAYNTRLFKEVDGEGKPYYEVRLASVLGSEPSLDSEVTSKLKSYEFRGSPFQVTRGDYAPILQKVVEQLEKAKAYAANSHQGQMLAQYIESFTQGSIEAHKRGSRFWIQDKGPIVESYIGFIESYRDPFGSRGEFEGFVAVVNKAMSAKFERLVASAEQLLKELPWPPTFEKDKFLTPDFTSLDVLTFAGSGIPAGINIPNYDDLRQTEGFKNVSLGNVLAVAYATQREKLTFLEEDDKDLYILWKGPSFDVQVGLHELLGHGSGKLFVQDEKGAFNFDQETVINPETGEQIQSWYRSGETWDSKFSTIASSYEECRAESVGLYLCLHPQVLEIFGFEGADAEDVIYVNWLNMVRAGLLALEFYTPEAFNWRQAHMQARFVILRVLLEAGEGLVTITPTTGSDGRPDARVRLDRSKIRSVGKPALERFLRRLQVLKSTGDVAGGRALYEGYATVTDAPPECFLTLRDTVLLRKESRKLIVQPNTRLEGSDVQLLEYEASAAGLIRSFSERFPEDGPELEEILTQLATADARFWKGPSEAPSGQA
# B1: murine monoclonal anti-DPP3 antibody AK1967 (antibody, V domains shown)
# VH: QVTLKESGPGILQPSQTLSLTCSFSGFSLSTSGMSVGWIRQPSGKGLEWLAHIWWNDNKSYNPALKSRLTISRDTSNNQVFLKIASVVTADTGTYFCARNYSYDYWGQGTTLTVSS
# VL: DVVVTQTPLSLSVSLGDPASISCRSSRSLVHSIGSTYLHWYLQKPGQSPKLLIYKVSNRFSGVPDRFSGSGSGTDFTLKISRVEAEDLGVYFCSQSTHVPWTFGGGTKLEIK
# B2: native DPP3: native human DPP3 purified from human erythrocyte lysate (protein)
# chain: T2 sequence
# Legend:
# [1] = target: T1, DPP3; conditions: literature; cited from earlier work
# [2] = tested on: healthy mice injected with DPP3; assay: Effect of Valsartan in healthy mice injected with DPP3; format: in vivo, Black 6 mice
# Procedure: In this experiment, healthy Black 6 mice (8-12 weeks, group size refer to table 8) consumed water with 50 mg/kg Valsartan per day or just water (Table 8) for a period of two weeks. Subsequently, both groups received an intravenous injection of native DPP3 (600 μg/kg) and the shortening fraction was assessed according to Gao et al., 2011 at 15, 60 and 120 minutes (FIG. 12).
# [3] = target: T2, native human DPP3 from blood cells; assay: cell-based or functional assay
# [4] = tested on: healthy mice; assay: Effect of native DPP3 injection in healthy mice; format: in vivo, Black 6 mice; conditions: 600 μg/kg i.v., versus PBS
# Procedure: Wild type Black 6 mice (8-12 weeks, group size refer to table 3) were acclimated during 2 weeks and a baseline echocardiography was done. The mice were randomly allocated to one of the two groups and, subsequently, native DPP3 protein or PBS were injected intravenously via a retro-orbital injection with a dose of 600 μg/kg for DPP3 protein.
# After DPP3 or PBS injection, cardiac function was assessed by echocardiography (Gao et al. 2011) and renal function assessed by renal resistive index (Lubas et al., 2014, Dewitte et al, 2012) at 15, 60 and 120 minutes (FIG. 3).
molecule,measurement,setting,value
Cc1cc(=O)c2c(cc(O)c3c4c(O)cccc4c(=O)c32)c1=O [Fluostatin A],inhibition of DPP3 activity,[1],strongly inhibit DPP3 activity
CCCCC(=O)N(Cc1ccc(-c2ccccc2-c2nnn[nH]2)cc1)[C@H](C(=O)O)C(C)C [Valsartan],shortening fraction after DPP3 injection,"[2]; 50 mg/kg Valsartan per day in water for two weeks, then native DPP3 600 μg/kg i.v.",rescued; also recorded: no signs of heart dysfunction
CC1C(=O)c2cc(O)c3c(c2C(O)C1O)C(=O)c1cccc(O)c1-3 (stereo not drawn) [Fluostatin B],inhibition of DPP3 activity,[1],strongly inhibit DPP3 activity
B1,IC50 (read off the curve),[3],~10 ng/mL
B2,shortening fraction after DPP3 injection,"[2]; native DPP3 600 μg/kg i.v., no Valsartan",significant decrease in the shortening fraction
same,renal resistive index,[4],renal resistive index increase
same,shortening fraction,[4],significantly reduced shortening fraction
same,renal resistive index,[4]; listed as DPP3,increased renal resistive index
same,shortening fraction,[4]; listed as DPP3,shortening fraction reduction
